Experimental data from patent US20130078718A1, “CONVERSION OF VASCULAR ENDOTHELIAL CELLS INTO MULTIPOTENT STEM-LIKE CELLS” (PRESIDENT AND FELLOWS OF HARVARD COLLEGE, priority 2010, published 2013).

Molecular target: T1, ALK2 (Homo sapiens, UniProt Q04771)
T1 construct: Phosphorylation of this receptor was therefore examined in cell lysates; endogenous in cells; host or cells: primary HUVEC and HCMEC
T1 sequence (Q04771 21-509): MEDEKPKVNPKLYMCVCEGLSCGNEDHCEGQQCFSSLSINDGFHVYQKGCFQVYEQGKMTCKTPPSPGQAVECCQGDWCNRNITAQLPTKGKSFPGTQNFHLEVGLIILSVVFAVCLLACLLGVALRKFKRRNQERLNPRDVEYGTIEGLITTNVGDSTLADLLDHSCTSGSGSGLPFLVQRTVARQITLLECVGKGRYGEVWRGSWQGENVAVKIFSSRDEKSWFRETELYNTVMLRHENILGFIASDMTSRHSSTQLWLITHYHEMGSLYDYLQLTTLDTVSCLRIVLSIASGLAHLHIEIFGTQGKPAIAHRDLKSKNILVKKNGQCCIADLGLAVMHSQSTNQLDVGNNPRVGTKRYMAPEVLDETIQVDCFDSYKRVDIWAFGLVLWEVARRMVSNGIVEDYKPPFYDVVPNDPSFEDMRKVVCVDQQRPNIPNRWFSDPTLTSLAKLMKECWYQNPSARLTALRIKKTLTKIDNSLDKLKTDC
Assay: ALK2 phosphorylation: immunoprecipitation with ALK2 antibodies, phospho-tyrosine immunoblotting
Format: cell-based
Conditions: 10 ng/mL, 15 minutes
Description: Human umbilical vein endothelial cells (HUVEC) and human cutaneous microvascular endothelial cells (HCMEC) were provided by J. Bischoff (Children's Hospital Boston) and isolated as previously described^35. […] Cells were grown in culture using EGM-2 medium (Cambrex), containing 10% FBS and 1% Penicillin/Streptomycin, followed by human endothelial serum free medium (Gibco) 24 hours prior to all experimental conditions. Bone marrow derived mesenchymal stem cells (ScienCell Research Laboratories) were grown in mesenchymal stem cell medium (ScienCell Research Laboratories). Human corneal fibroblasts, from a stock initially provided by E. Hay (Harvard Medical School), were grown in RPMI medium, containing 10% FBS and 1% Penicillin/Streptomycin. […]
Immunoassays were performed using the following antibodies at concentrations (and using protocols) recommended by the respective manufacturers: FSP-1 (H00006275-M01; Stressgen), ALK2 (sc-5671), Phospho-tyrosine (sc-7020), VE-cadherin (sc-6458), TIE2 (sc-324, sc-9026), STRO-1 (sc-47733), CD44 (sc-71220), CD90 (sc-9163), Osteocalcin (sc-74495, sc-23790), SOX9 (sc-20095), COL2A1 (sc-59958, sc-52658), PPARγ2 (sc-22022; Santa Cruz Biotechnology), vWF (ab68545; Abcam); His (A00174; GenScript); α-SMA (A5228), β-actin (A1978; Sigma-Aldrich). […] Images were acquired using a Nikon 80i fluorescence microscope. […]

ALK2 receptor phosphorylation (phospho-tyrosine) | Substance
induced receptor phosphorylation | TGF-β2: Recombinant TGF-β2 protein (R&D Systems), ALK2 activating ligand, used at 10 ng/mL
induced receptor phosphorylation | BMP4: Recombinant BMP4 protein (R&D Systems), ALK2 activating ligand, used at 10 ng/mL
